From PMC11723951

Biological target: CBX5^MBD chimera (CBX5 in which the chromodomain was replaced by the MeCP2 methyl-DNA binding domain) (UniProt P51608)

chromocenter partition coefficient of the HRD in Suv39h1/2 null MEFs upon CBX5^MBD co-expression (1.33 without it; 11.54 in wild-type cells), live-cell imaging: 4.43
Substance: KMT5C heterochromatin retention domain (HRD), wild type, fluorescent fusion (domain or fragment)
